Measured values from patent US10900903B2, “Protein structure analysis based on red-edge excitation shift (REES) spectroscopy” (UNIVERSITY OF BATH, priority 2016, dated 2021).
Where “and” joins values, the source holds several entries; their conditions need not be identical. Equal entries are not always repeated.

What was measured:
[1] = pressure dependence of emission, ref [23]; cited from earlier work
[2] = previously found; cited from earlier work
[3] = High-pressure REES measurements; assay type: physicochemical
From the text: The CSM value is rather larger than reported for the denaturation study above (FIGS. 3A and 3B) and this is due to a different spectral window used to calculate the CSM for the pressure studies. This was necessary due to the optical setup of the pressure cell. […] Fitting the REES data to Eq 4 gives the pressure dependence of A, shown in FIG. 4D as the change in the fraction of A across the pressure range. […] The pressure dependence data can be adequately fit to a simple, phenomenological model that implies a single transition between two states with changing hydrostatic pressure as used previously:
Where Rp=83.13 cm3 mol^−1 bar K^−1 when the pressure, p, is measured in bar, K0 is the equilibrium constant for the change in the relative population of the ith conformational state represented by the magnitude of A from Eq 4, extrapolated to 0 bar and ΔVA is the apparent difference in the volume associated with this equilibrium transition.
The difference in sign is simply attributable to relative change in direction of the specific to signal. What is important is that the magnitude of ΔV is much larger for the REES effect compared to W6 emission. Indeed, this magnitude of pressure dependence is more consistent with global metrics of NEMO conformational change previously measured using the pressure dependence of 8-anilino naphthalene sulfonate (ANS) emission. The REES signal may therefore be reflective of the broader equilibrium of NEMO conformational states at sites distal to W6. […] The key finding from the pressure data in the present context is that the REES effect itself is pressure-dependent with the magnitude of A increasing with pressure.
An ISS high-pressure cell (ISS, Champaign, UL, USA), fitted with a custom fiber optic mounting to the fluorimeter and connected to a circulating water bath for temperature regulation was used to record all high-pressure measurements.
Where fi is the measured fluorescence intensity and λem is the emission wavelength. The importance of using a consistent wavelength range when reporting CSM data is stressed, as the magnitude will be dependent on the wavelength range chosen.

[4] = REES of NEMO W6 Trp emission: native, denatured, crowded; assay type: physicochemical; settings: for R0: y-intercept of Eq 2 fit
Procedure: Typically the magnitude of the steady-state REES phenomenon is reported as the simple difference in CSM or ΔλEm^max. From FIG. 1, it is observed that a significant red shift in the emission spectra, with an increase in CSM of 17.7 nm and an increase in ΔλEm^max of 15 nm from λex 292-310 nm. Essentially the data are treated by the linear function: CSM=Rλex+CSM0 Eq 1.
Where R is the REES magnitude expressed as the change in CSM per nm of the excitation wavelength, λex.
The REES data in FIG. 2 can be best represented by a Gaussian probability distribution of the form:
Where A is the area, w is the full width at half-maximal (fwhm), m is the mid-point and R0 is the y-intercept and m=λREES^max, where λREES^max is the excitation wavelength that gives the largest change in the emission peak wavelength. The data in FIG. 2 are fit to Eq 2 and illustrate the low energy excitation at the red edge of the protein absorption spectrum. The fit of Eq 2 to the experimental data is excellent and captures the expected relationship described above.
In this case, the solvent relaxation will be very rapid and no REES effect observed, effectively because there is one discrete solvation state (fully solvated). NEMO is incubated in 6M guanidine to denature the protein and the corresponding change in the center of spectral mass (CSM) versus λex is shown in FIG. 3. The use of CSM is favoured instead of the magnitude of ΔλEm^max as this metric gives a more robust REES signal and the magnitude of may be highly error prone. However the results using ΔλEm^max are essentially the same. A decrease and red-shift in Trp emission is typically grossly correlated with denaturation of proteins. […] Note that this is not the REES effect but reflective of the solvent exposure of NEMO W6 on denaturation. […] Fitting to Eq 2 also gives a large decrease in the REES effect, A=0.37±0.4. The relative change in the REES effect is similar using either approach and this indicates strongly that a fitting approach using Eq 2 is robust.
Macromolecular crowding is a key feature of the intracellular milieu arising from the very high concentrations of other species in the cytosol. Crowding reduces the available solvent for other molecules in solution through the excluded volume effect, which effectively increase the concentration of, for example, protein and restricts the accessible conformational states through hard-core repulsions between the crowding agent and the protein. Macromolecular crowding can alter protein conformation, typically inducing folding and stabilization. Crowding therefore potentially provides a means to explore the contrasting physical effect of denaturation on the REES effect, where the protein is more folded/stabilized. A protein has been used as the crowding agent, Sbi (reported above), instead of a synthetic crowding agent since protein is much more consistent with the intracellular environment. […] Incubating NEMO with a high concentration of Sbi (20 mg/ml) gives a dramatic change to the both the absolute Trp emission and also the REES effect as shown in FIG. 3. […] Intriguingly, the REES effect is much larger in the crowded environment giving a relative increase in A of 2.24±0.51. […] This is consistent with the putative molecular model of NEMO activity that is based on allosterically regulated NEMO conformational change. Below, the potential mechanistic role of an increased number of available conformational states with respect to ligand interactions is described.
Full length human NEMO was expressed and purified essentially as described previously. Purified protein was dialysed extensively into a buffer comprising 50 mM Tris-Cl pH 8.0, 50 mM NaCl and 5 mM DTT. All measurements were made in this buffer unless otherwise stated. IKK-β and IκBα peptides were commercially synthesised by Genscript, having a purity of >98% and are of the sequence […] and […], respectively. […]

[5] = QUBES values of native mAbs; assay type: physicochemical; settings: native mAb
From the text: First, the combined excitation and emission spectrum is monitored for each mAb giving a high information content fluorescence data set (FIG. 13A). […] A simpler exponential function is fitted, CSM=CSM0+Ae^RΔλ^Ex Eq 1.
Where CSM0 is the CSM value independent of the excitation wavelength, λEx, determined by the amplitude, A, of an exponential with a curvature determined by R. Fitting with this function instead of a Gaussian or other probability distribution dramatically improves the speed of data processing due to the lower dimensionality of the model but still retains the key aspects of the previous model, namely quantification of the magnitude of the fluorescence edge-shift. The plot of the resulting parameters yields a single three-dimensional data point (FIG. 13B, inset; the QUBES value), which is a direct quantification of the extremely complex spectral fingerprint shown in FIG. 13A.
All fluorescence measurements were performed using a Perkin Elmer LS50B Luminescence Spectrometer (Perkin Elmer, Waltham, Mass., USA) connected to a circulating water bath for temperature regulation (±1° C.). […] Tryptophan emission was monitored from 325 to 500 nm. […] The centre of spectral mass (CSM) was calculated using the following equation: […]
Where fi is the measured fluorescence intensity and Δem is the emission wavelength. […]

Substance | ΔV for W6 (Trp) emission [1] | random coil content [2] | α-helical content [2] | ΔλEm^max ([3]; 10° C., 1 bar, λex=295 nm) | increase in W6 CSM with increasing pressure ([3]; λex=292 nm) | increase in CSM from 1 to 2000 bar ([3]; λex=310 nm) | R (fit to Eq 1), change in CSM per nm of λex ([4]; absolute value) | A (REES magnitude, fit to Eq 2) ([4]; relative to NEMO alone, native, denatured (6M guanidine), crowded (Sbi 20 mg/ml)) | R (fit to Eq 1), relative ([4]; relative to NEMO alone, native, denatured, crowded) | R0 ([4]; native, denatured, crowded) | R0 ([4]; native, denatured, crowded, listed as NEMO) | R0 ([4]; native, denatured, crowded, listed as native NEMO) | increase in CSM (red shift) ([4]; λex 292-310 nm) | increase in ΔλEm^max ([4]; λex 292-310 nm) | QUBES value (A, R), predicted rigidity/flexibility [5]
NEMOnative: Full length human NF-κB essential modulator; W6 is its single intrinsic Trp residue | 0.81 cm3 mol^−1 and ~1.6±0.4 cm3 mol^−1 | ~40% | ~50% | 348 nm | 3.0 nm | 8.9 nm | 0.96 | 1 ± 0.1 | 1 ± 0.13 | 363.2 ± 0.19 nm | 363.2±0.19 nm | 363.2±0.19 nm | 17.7 nm | 15 nm | 
Nivolumab: human therapeutic mAb |  |  |  |  |  |  |  |  |  |  |  |  |  |  | high A and small R value
Pertuzumab: humanised therapeutic mAb |  |  |  |  |  |  |  |  |  |  |  |  |  |  | small A and high R value
